These results are taken from article doi:10.1101/2020.01.15.908418.

Read-outs that look alike come from different tables or passages of the source.

Experiment [1] addresses tropomyosin of murine cardiac thin filaments (mouse (endogenous in murine ventricular myocardium)) (UniProt P58771). Kind of experiment: cryo-EM structure.
The target is the same in experiment [2]. Nature of the experiment: cryo-EM structure. This is another data set of the same source.

As a reminder, the stoichiometry N is the number of molecules, sites or subunits per partner or assembly. Consider “tropomyosin of murine cardiac thin filaments (from UniProt P58771 1-284) (natural protein)”, for which the stoichiometry N in experiment [1] and in experiment [2] was 2 in each case.
